Laboratory results published in patent publication US20250269018A1, “COMBINED CANCER THERAPY WITH AN EPITHELIAL CELL ADHESION MOLECULE (EPCAM) INHIBITOR AND A HEPATOCYTE GROWTH FACTOR RECEPTOR (HGFR) INHIBITOR” (ACADEMIA SINICA, priority 2021, published 2025).

B1: EpAb2-6: anti-EpCAM neutralizing monoclonal antibody targeting EpEX; VH SEQ ID NO: 15, VL SEQ ID NO: 16 (antibody, listed as Homo sapiens, V domains shown)
VH: VKLQESGPELKKPGETVKISCKASGYTFTDYSMHWVKQAPGKGLKWMGWINTETGEPTYADDFKGRFAFSLETSASTAYLQINNLKNEDTATYFCARTAVYWGQGTTVTVSS
VL: DIQMTQSPSSLSASLGERVSLTCRASQEISVSLSWLQQEPDGTIKRLIYATSTLDSGVPKRFSGSRSGSDYSLTISSLESEDFVDYYCLQYASYPWTFGGGTKLEIKRADAAPTVS

System: HGFR signaling
Assay: Western blotting of phosphorylated HGFR, AKT, ERK, FAK in HCT116 cells
Assay type: cell-based, human
Details: for phosphorylation of HGFR, AKT, and ERK: FIG. 7D
Experimental: FIGS. 2A to 2K. EpEX promotes tumor progression via HGFR signaling. (FIG. 2A) WT or EpCAM knockout (KO) HCT116 and HT29 cells treated with HGF (0.5 nM) for 15 min. The phosphorylation of HGFR, AKT, and ERK was examined by Western blotting. (FIG. 2B) WT or KO HCT116 and HT29 cells were treated with HGF (0.5 nM) with 2% FBS for the indicated times. Cell growth was examined by the WST-1 assay. (FIG. 2C) Starved HCT116 cells were treated with HGFR inhibitor SU11274 (SU, 10 μM) for 1 h then treated with 50 nM of EpEX-His for 15 min. The levels of phosphorylated HGFR, EGFR, AKT, and ERK were examined by Western blotting. HCT116 and HT29 cells were treated with 50 nM EpEX and SU (10 μM). (FIG. 2D) Cell growth was examined by WST-1 assay after treatment for indicated time. (FIG. 2E) HCT116 cells were treated with shLuc or HGFR shRNA then treated with 50 nM of EpEX-His for 15 min. The levels of phosphorylated HGFR, EGFR, ERK, and AKT were examined in HGFR knockdown HCT116 cells by Western blotting. (FIG. 2F) The levels of phosphorylated ADAM17 and presenilin 2 were examined by Western blotting. (FIG. 2G) Active β-catenin nuclear translocation was assay by using Western blotting. (H) HCT116 cells were treated with shLuc or HGFR shRNA then treated with 50 nM of EpEX-His for indicated times. Cell growth was examined by the WST-1 assay. (FIG. 2I) HCT116 cells after shLuc and shHGFR treatment were treated with 50 nM of EpEX-His with 2% FBS for 7 days. Colony formation was examined by crystal violet staining.
FIGS. 6A to 6J. EpAb2-6 inhibits EpCAM and HGFR signaling and promotes active β-catenin and Snail protein degradation via activating GSK3β. (FIG. 6A) HCT116 cells were treated with 10 μg/ml control IgG (normal mouse IgG, NMIgG) or mouse EpAb2-6 (EpAb2-6) for 16 h, followed by treatment with EpEX-His (50 nM) for 15 min. Levels of phosphorylated HGFR, AKT, FAK, GSK3β, ERK, ADAM17, and presenilin 2 were examined by Western blotting. (FIG. 6B) HCT116 cells were treated with 10 μg/ml control IgG or mouse EpAb2-6 for 16 h, followed by treatment without or with HGF (0.5 nM) for 15 min. Levels of phosphorylated HGFR, AKT, and ERK were examined by Western blotting. HCT116 cells were treated with mouse EpAb2-6 (10 μg/ml) and HGF (0.5 nM). (FIG. 6C) Cell migration was examined by the wound healing assay at the indicated times. (FIG. 6D) Cell invasion was assessed by a Transwell assay with matrigel after 24 h. (FIG. 6E) HCT116 cells were treated with NMIgG or EpAb2-6 for 6 h and then immunoprecipitated with anti-EpCAM (IP: EpCAM) or anti-HGFR (IP: HGFR) antibodies, followed by Western blotting. (FIG. 6F) EpEX-His (2 μg/ml) co-treated with 1 μg IgG or EpAb2-6 was added to HGFR-Fc-coated (1 μg/ml) ELISA plates and detected by TMB colorimetric peroxidase assay. (FIG. 6G) EMT associated protein levels were detected by Western blotting in HCT116 cells treated with NMIgG or EpAb2-6 for 24 h. (FIG. 6H) Protein expression was analyzed by Western blotting in HCT116 cells after treatment with EpAb2-6 and 2 μM GSK3β inhibitor (BIO) for 24 h. Quantification of the normalized protein expression in the bottom panel. (FIG. 6I) HCT116 cells were treated with 10 μM MG132 and EpAb2-6 for 6 h before cell collection and subsequent Western blotting. (FIG. 6J) Stability of Snail protein in HCT116 cells treated with NMIgG or EpAb2-6. Cells were treated with cyclohexamide (CHX) 100 μg/ml at the indicated intervals and subjected to Western blotting.
FIGS. 7A to 7G. EpAb2-6 binds EpEX and induces apoptosis by F(ab′)2 and inhibits regulated intramembrane proteolysis (RIP) activation and HGFR signaling. (FIG. 7A) Binding affinity of IgG EpAb2-6 (mouse) and F(ab′)2 to EpEX-His (1 μg/ml) coated overnight was checked using ELISA (OD450). (FIG. 7B) HCT116 cells were treated with 100 μg/ml control IgG, Fc, or F(ab′)2 of EpAb2-6 for 24 h. The apoptotic and necrotic cells were quantified by fluorescein annexin V-FITC/PI double labeling. […]

[1] = HCT116, 10 μg/ml 16 h, then EpEX-His 50 nM 15 min

Molecule	phosphorylation of HGFR, AKT, and ERK [1]	EpEX-mediated ERK and AKT phosphorylation (HCT116 cells, SU 10 μM 1 h, then 50 nM EpEX-His 15 min, FIG. 2C)	phosphorylation of HGFR, AKT, ERK, and FAK (HCT116, 10 μg/ml 16 h, then EpEX-His 50 nM 15 min, vs control IgG, FIG. 6A)	phosphorylation levels of HGFR, AKT, and ERK (HCT116, 10 μg/ml 16 h, without or with HGF 0.5 nM 15 min, FIG. 6B)	levels of phosphorylated HGFR (after EpAb2-6 treatment, discussion statement)
MT201: human anti-EpCAM antibody, adecatumumab (MT201)	did not				
Cc1[nH]c(C=C2C(=O)Nc3ccc(S(=O)(=O)N(C)c4cccc(Cl)c4)cc32)c(C)c1C(=O)N1CCN(C)CC1 (stereo in doubt) [SU11274, (3Z)-N-(3-Chlorophenyl)-3-({3,5-dimethyl-4-[(4-methylpiperazin-1-yl)carbonyl]-1H-pyrrol-2-yl}methylene)-N-methyl-2-oxo-2,3-dihydro-1H-indole-5-sulfonamide]		attenuate EpEX-mediated ERK and AKT phosphorylation			
B1	inhibited phosphorylation of HGFR, AKT, and ERK		decreased phosphorylation of HGFR, AKT, ERK, and FAK	significantly decreased	decreased levels of phosphorylated HGFR
